Data taken from article PMC10690159.

Molecular target: SARS-CoV-2 Nsp15 catalytically inactive mutant H234A (SARS-CoV-2)
Assay: cryo-EM structure

## SARS-CoV-2 Nsp15 catalytically inactive mutant H234A (enzyme)
  stoichiometry N: 6
